In patent publication US20090246219A1:

Molecular target: recombinant truncated protein E pE22-160, designated pE(A) (H. influenzae (NTHi strain 772))
Assay: Western blot of pE(A) probed with IgD(λ)

human IgD(λ) myeloma protein (human IgD myeloma whole serum IgD(λ), The Binding Site, Birmingham, England) (antibody)
amount of pE(A) detected on Western blot: 0.01 microg
